Results taken from the supplement of paper PMC9112550, “Optimization of the antimicrobial peptide Bac7 by deep mutational scanning” (BMC Biology, 2022).

Test system: Escherichia coli TOP10
Assay: shrunken log2 fold change of peptide-encoding DNA abundance (4.5 h post-induction vs induction); higher = less antimicrobial activity (less host growth inhibition)
Details: time post-induction: 4.5 h; library: site-saturation at positions 5, 18, 19, 20
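Also: peptides expressed intracellularly from a pBAD plasmid library in pooled LB shake-flask culture, induced with 0.3% L-arabinose, DNA abundance read by NGS, three biological replicates, DESeq2 with apeglm shrinkage.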

Sequence | shrunken log2 fold change
RRIRWRPPRLPRPRPRPGVFPRP | 0.224
RRIRARPPRLPRPRPRPPSAPRP | 0.827
RRIRARPPRLPRPRPRPVCIPRP | 0.11
RRIRHRPPRLPRPRPRPFSQPRP | -0.302
RRIRWRPPRLPRPRPRPFVNPRP | -0.483
RRIRCRPPRLPRPRPRPMHKPRP | -0.203
RRIRLRPPRLPRPRPRPDDPPRP | 0.00153
RRIRSRPPRLPRPRPRPRIIPRP | -0.712
RRIRERPPRLPRPRPRPSGPPRP | -0.203
RRIRDRPPRLPRPRPRPHYYPRP | -0.236
RRIRRRPPRLPRPRPRPGHYPRP | -0.0611
RRIRCRPPRLPRPRPRPDSAPRP | -0.181
RRIRQRPPRLPRPRPRPDGLPRP | -0.0465
RRIRGRPPRLPRPRPRPWHVPRP | -0.0733
RRIRKRPPRLPRPRPRPDHFPRP | 0.0027
RRIRHRPPRLPRPRPRPWAIPRP | 0.112
RRIRMRPPRLPRPRPRPRYIPRP | -0.31
RRIRDRPPRLPRPRPRPRLQPRP | 0.0983
RRIRSRPPRLPRPRPRPGVPPRP | 0.318
RRIRHRPPRLPRPRPRPATEPRP | 0.29
RRIRERPPRLPRPRPRPRTSPRP | 0.0838
RRIRNRPPRLPRPRPRPMREPRP | 0.13
RRIRGRPPRLPRPRPRPHYWPRP | 0.12
RRIRQRPPRLPRPRPRPMLLPRP | -0.337
RRIRFRPPRLPRPRPRPPWCPRP | 0.0236

Sequence | shrunken log2 fold change
RRIRTRPPRLPRPRPRPQNPPRP | -0.148
RRIRFRPPRLPRPRPRPEFIPRP | -0.523
RRIRCRPPRLPRPRPRPYCMPRP | -1.09
RRIRIRPPRLPRPRPRPVLHPRP | -0.447
RRIRSRPPRLPRPRPRPNVPPRP | -0.131
RRIRWRPPRLPRPRPRPHSRPRP | 0.194
RRIRSRPPRLPRPRPRPWRKPRP | 0.0156
RRIRRRPPRLPRPRPRPCWCPRP | -0.138
RRIRKRPPRLPRPRPRPQPIPRP | 0.424
RRIRERPPRLPRPRPRPRHYPRP | -0.462
RRIRERPPRLPRPRPRPHLPPRP | -0.136
RRIRIRPPRLPRPRPRPEFGPRP | 0.129
RRIRPRPPRLPRPRPRPTTYPRP | -0.141
RRIRHRPPRLPRPRPRPLDRPRP | -0.56
RRIRDRPPRLPRPRPRPIECPRP | 0.279
RRIRWRPPRLPRPRPRPQCWPRP | 0.0793
RRIRDRPPRLPRPRPRPFVNPRP | -0.254
RRIRYRPPRLPRPRPRPAWNPRP | -0.374
RRIRERPPRLPRPRPRPNELPRP | -0.0227
RRIRVRPPRLPRPRPRPRKWPRP | 0.474
RRIRMRPPRLPRPRPRPFLCPRP | -0.0722
RRIRTRPPRLPRPRPRPMIKPRP | -0.103
RRIRERPPRLPRPRPRPVAGPRP | 0.246
RRIRSRPPRLPRPRPRPFRFPRP | -0.21
RRIRARPPRLPRPRPRPVHIPRP | -0.177

Sequence | shrunken log2 fold change
RRIRDRPPRLPRPRPRPSHYPRP | -1.14
RRIRPRPPRLPRPRPRPRNKPRP | -0.136
RRIRNRPPRLPRPRPRPVLEPRP | 0.183
RRIRLRPPRLPRPRPRPYHVPRP | -1.29
RRIRNRPPRLPRPRPRPTSYPRP | 0.00322
RRIRNRPPRLPRPRPRPTYQPRP | -0.0398
RRIRYRPPRLPRPRPRPHGVPRP | -0.261
RRIRHRPPRLPRPRPRPFHEPRP | -0.2
RRIRRRPPRLPRPRPRPWTSPRP | -0.0576
RRIRPRPPRLPRPRPRPFMMPRP | -0.845
RRIRERPPRLPRPRPRPKGEPRP | 0.0173
RRIRGRPPRLPRPRPRPFCPPRP | -0.0253
RRIRMRPPRLPRPRPRPANCPRP | -0.242
RRIRARPPRLPRPRPRPTCPPRP | 0.444
RRIRARPPRLPRPRPRPALYPRP | 0.332
RRIRMRPPRLPRPRPRPDMRPRP | 0.0245
RRIRIRPPRLPRPRPRPPSSPRP | -0.0293
RRIRFRPPRLPRPRPRPEIFPRP | -0.139
RRIRHRPPRLPRPRPRPDMDPRP | 0.0205
RRIRDRPPRLPRPRPRPCVHPRP | 0.412
RRIRFRPPRLPRPRPRPITLPRP | -0.274
RRIRQRPPRLPRPRPRPNMYPRP | -0.433
RRIRRRPPRLPRPRPRPSNLPRP | 0.112
RRIRCRPPRLPRPRPRPWLVPRP | -0.16
RRIRLRPPRLPRPRPRPKDCPRP | -0.495

Sequence | shrunken log2 fold change
RRIRQRPPRLPRPRPRPNMVPRP | -0.0131
RRIRGRPPRLPRPRPRPGHSPRP | -0.0314
RRIRIRPPRLPRPRPRPYCRPRP | 0.182
RRIRNRPPRLPRPRPRPQNMPRP | -0.233
RRIRVRPPRLPRPRPRPNPCPRP | -0.461
RRIRTRPPRLPRPRPRPMPFPRP | -0.00604
RRIRHRPPRLPRPRPRPTNFPRP | -0.398
RRIRIRPPRLPRPRPRPSSHPRP | -1.02
RRIRMRPPRLPRPRPRPMQGPRP | 0.4
RRIRMRPPRLPRPRPRPHPTPRP | 0.805
RRIRFRPPRLPRPRPRPKIAPRP | -0.0112
RRIRQRPPRLPRPRPRPQTAPRP | -0.000297
RRIRMRPPRLPRPRPRPQQKPRP | 0.0182
RRIRFRPPRLPRPRPRPGRAPRP | 0.712
RRIRVRPPRLPRPRPRPCCFPRP | -0.00712
RRIRRRPPRLPRPRPRPEKGPRP | -0.0235
RRIRKRPPRLPRPRPRPCFLPRP | -0.0702
RRIRHRPPRLPRPRPRPQQCPRP | -0.0705
RRIRFRPPRLPRPRPRPCFTPRP | -0.237
RRIRARPPRLPRPRPRPWNSPRP | -0.222
RRIRSRPPRLPRPRPRPHYCPRP | -0.289
RRIRPRPPRLPRPRPRPDHFPRP | -0.0536
RRIRARPPRLPRPRPRPAKEPRP | 0.521
RRIRGRPPRLPRPRPRPVYKPRP | 0.0688
RRIRVRPPRLPRPRPRPKWYPRP | -0.194

Sequence | shrunken log2 fold change
RRIRARPPRLPRPRPRPYRSPRP | -0.51
RRIRHRPPRLPRPRPRPKWKPRP | 0.107
RRIRFRPPRLPRPRPRPDDIPRP | -0.0253
RRIRERPPRLPRPRPRPCCTPRP | -0.243
RRIRQRPPRLPRPRPRPHTKPRP | -0.213
RRIRLRPPRLPRPRPRPIDLPRP | -0.0804
RRIRIRPPRLPRPRPRPDHGPRP | 0.0143
RRIRVRPPRLPRPRPRPGALPRP | 0.0362
RRIRVRPPRLPRPRPRPSAYPRP | -0.34
RRIRGRPPRLPRPRPRPTCQPRP | 0.71
RRIRDRPPRLPRPRPRPKTMPRP | -0.0184
RRIRFRPPRLPRPRPRPLSVPRP | -0.271
RRIRERPPRLPRPRPRPAFMPRP | -0.154
RRIRLRPPRLPRPRPRPTIAPRP | -0.183
RRIRSRPPRLPRPRPRPIYLPRP | -0.336
RRIRARPPRLPRPRPRPLVFPRP | 0.397
RRIRWRPPRLPRPRPRPKKFPRP | 0.0141
RRIRVRPPRLPRPRPRPGDQPRP | 0.0324
RRIRARPPRLPRPRPRPNPLPRP | 0.32
RRIRKRPPRLPRPRPRPMDKPRP | 0.166
RRIRVRPPRLPRPRPRPNRDPRP | -0.0911
RRIRWRPPRLPRPRPRPSQDPRP | 0.22
RRIRARPPRLPRPRPRPTIEPRP | 0.225
RRIRKRPPRLPRPRPRPPCAPRP | 0.804
RRIRFRPPRLPRPRPRPHVVPRP | -0.0249
